Reference: US20040087013, “Stable macroscopic membranes formed by self-assembly of amphiphilic peptides and uses therefor” (published 2004)

Target: T1, zuotin (ZUO1), yeast-purified fractions (Saccharomyces cerevisiae, UniProt P32527 SEQ:1-433)
T1 sequence: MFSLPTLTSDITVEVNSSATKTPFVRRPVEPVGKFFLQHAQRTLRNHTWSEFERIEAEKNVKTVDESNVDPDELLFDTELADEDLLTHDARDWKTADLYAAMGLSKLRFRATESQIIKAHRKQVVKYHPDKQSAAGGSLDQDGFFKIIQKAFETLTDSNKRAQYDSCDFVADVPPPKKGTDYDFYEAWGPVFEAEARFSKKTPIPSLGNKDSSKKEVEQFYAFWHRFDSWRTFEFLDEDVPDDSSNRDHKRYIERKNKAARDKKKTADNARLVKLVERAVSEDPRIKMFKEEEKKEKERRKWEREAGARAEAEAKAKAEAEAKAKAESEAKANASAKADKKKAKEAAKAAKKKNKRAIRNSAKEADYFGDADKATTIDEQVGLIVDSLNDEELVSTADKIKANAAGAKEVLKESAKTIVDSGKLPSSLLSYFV
Experiment: EMSA; fraction FI; 2000-fold excess salmon sperm DNA
Conditions: tags: none; label: 32P; left-handed Z-DNA, 44mer alternating dG-Br5dC
Description: In order to determine if these band shifts were the result of authentic Z-DNA binding, negatively supercoiled plasmids of pUC19 and pUC19(GC) were used as competitor DNAs in gel retardation competition assays.
A gel retardation assay was employed to detect proteins with affinity to left-handed Z-DNA. In these assays, two kinds of left-handed DNA probes were used. […] The other probe was derived from a synthetic 44mer oligo(dG-Br⁵dC)₂₂, labelled using Klenow polymerase with [α-³²P]dGTP, and stabilized in the Z-DNA conformation by 10 mM MgCl₂, or 0.1 mM Co(NH₃)₆³⁺. […] In the competition assays, supercoiled pUC19 and pUC19(CG) were added to the reaction samples separately. […] After electrophoresis, the gel was dried and exposed to X-ray film.

B1: oligo (dG-Br5dC)22 Z-form (dsDNA)
DNA 1: GCGCGCGCGCGCGCGCGCGCGCGCGCGCGCGCGCGCGCGCGCGC
DNA 2: B1 DNA 1
modifications: 5-bromo-dC at all C [5-bromo-dC at all C (2,4,6,8,10,12,14,16,18,20,22,24,26,28,30,32,34,36,38,40,42,44 of each strand)]
B1: binds.
